Tests used:
Post-fusion F [1] = molecular target: T1, Post-fusion F (human respiratory syncytial virus A2 …); experiment: SPR
Post-fusion F [2] = molecular target: T1, Post-fusion F; experiment: SPR; remark: listed apart in the source

B1: Motavizumab (antibody, V domains shown)
VH: QVTLRESGPALVKPTQTLTLTCTFSGFSLSTAGMSVGWIRQPPGKALEWLADIWWDDKKHYNPSLKDRLTISKDTSKNQVVLKVTNMDPADTATYYCARDMIFNFYFDVWGQGTTVTVSS
VL: DIQMTQSPSTLSASVGDRVTITCSASSRVGYMHWYQQKPGKAPKLLIYDTSKLASGVPSRFSGSGSGTEFTLTISSLQPDDFATYYCFQGSGYPFTFGGGTKVEIK
- Kd (Post-fusion F [1]): 40 pM
- koff (Post-fusion F [2]): 1.44e-05 s⁻¹

B2: R4.C6 monoclonal antibody (antibody, V domains shown)
VH: EVQLQQSGPELVKPGASVKISCKASGYAFSNSWMSWVKQRPGKGLEWIGRLFPADGDITYNGHFKDKAALTADKSSNTAYIQLSSLTSEDSAVYFCARMDNSEVFWGQGTLVTVSA
VL: DILLTQSQKFMSTSVGDRVSITCKASQNVRTGVSWYQRKPGQSPKALIYLASNRHTGVPDRFTGRGSGTDFTLTISEVQSEDLADYFCLQHWTVPYTFGGGTKLEIK
- koff (Post-fusion F [2]): 3.74e-05 s⁻¹

Reference: article PMC6366758 (2019)
